In assay [1] the target is Fc-fused MET (His-/hFc-tagged human MET ectodomain) (Homo sapiens, UniProt P08581). Nature of the assay: SPR binding kinetics of selected macrocyclic peptides to Fc-fused MET. To be noted: for kon: pH 7.4, read-out: ka. On the technique in general: Surface plasmon resonance follows binding to a sensor surface in real time, without labels.
In assay [2] the target is T1, ectodomain of MET fused to Fc (UniProt P08581 25-932).
T1 construct: MET (hepatocyte growth factor receptor), a receptor tyrosine kinase; also called MET-Fc; Fc-tagged MET
Nature of the assay: SPR; fitted by a 1:1 binding model; who was immobilised and the conditions are in the Supporting Information (not shown). The note with it: both partners purified.

Assay [3] has as its target T2, ectodomain of MET fused to Fc (UniProt P08581 25-932).
T2 chain: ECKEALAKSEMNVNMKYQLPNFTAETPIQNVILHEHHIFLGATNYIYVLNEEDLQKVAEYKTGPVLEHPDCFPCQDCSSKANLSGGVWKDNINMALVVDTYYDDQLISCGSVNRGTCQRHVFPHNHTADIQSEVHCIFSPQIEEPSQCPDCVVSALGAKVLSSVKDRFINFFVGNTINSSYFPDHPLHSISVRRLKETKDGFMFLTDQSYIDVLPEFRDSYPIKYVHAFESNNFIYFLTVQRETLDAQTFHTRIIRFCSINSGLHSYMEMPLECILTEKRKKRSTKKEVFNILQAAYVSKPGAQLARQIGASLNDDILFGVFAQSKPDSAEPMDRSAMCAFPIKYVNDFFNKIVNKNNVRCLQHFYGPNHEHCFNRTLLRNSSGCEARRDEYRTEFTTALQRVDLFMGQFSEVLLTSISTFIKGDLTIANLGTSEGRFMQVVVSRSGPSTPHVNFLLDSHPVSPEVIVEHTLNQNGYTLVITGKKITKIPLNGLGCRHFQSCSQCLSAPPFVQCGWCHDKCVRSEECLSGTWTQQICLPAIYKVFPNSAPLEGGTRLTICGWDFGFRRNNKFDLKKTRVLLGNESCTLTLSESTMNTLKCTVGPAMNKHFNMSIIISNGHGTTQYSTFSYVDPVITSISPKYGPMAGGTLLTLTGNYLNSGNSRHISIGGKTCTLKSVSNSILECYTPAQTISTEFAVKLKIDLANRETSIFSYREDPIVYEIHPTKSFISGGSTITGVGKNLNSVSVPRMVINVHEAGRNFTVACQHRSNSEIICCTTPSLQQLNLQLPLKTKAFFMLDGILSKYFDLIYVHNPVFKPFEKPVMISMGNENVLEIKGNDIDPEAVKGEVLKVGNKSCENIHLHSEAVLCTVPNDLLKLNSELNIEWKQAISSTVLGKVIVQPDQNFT
The experiment in a line: SPR.

In assay [4] the target is T2, ectodomain of MET fused to Fc. Nature of the assay: SPR.

Where a SMILES comes first, the peptide text is derived from it. Bridges are numbered along the chain shown (N, C = ends). Where no end group is shown, it is not given here. [ ]: non-standard residue; d: D form.

As a reminder, the Kd is the equilibrium constant for the complex coming apart. As usually defined, the koff is the rate constant with which the complex falls apart. Low readings indicate a long-lived complex, high ones a short-lived complex.

Consider `CC[C@H](C)[C@@H]1NC(=O)[C@H](CCCCN)NC(=O)[C@@H](NC(=O)[C@H](CCC(=O)O)NC(=O)[C@@H](NC(=O)[C@H](Cc2c[nH]c3ccccc23)NC(=O)[C@H](CC(C)C)NC(=O)[C@@H]2CSCC(=O)N[C@@H](Cc3ccc(O)cc3)C(=O)N[C@@H](CC(N)=O)C(=O)N2)C(C)C)CSSC[C@@H](C(=O)NCC(N)=O)NC(=O)[C@H](CCCNC(=N)N)NC(=O)CNC(=O)[C@H](CC(N)=O)NC(=O)[C@@H]2CCCN2C(=O)[C@H](CC(C)C)NC(=O)[C@H](C(C)C)NC1=O` [12-4] ({CH2CO}-YNCLWVECKIVLPNGRCG-NH2; disulfide 8-17; thioether N-3), for which, in assay [1] (SPR conditions as E1), the kd is 0.00721 s⁻¹ and the “kd (quoted in text)” value was 7.21 × 10^–3 s^–1. Besides, the kon in assay [1] is 456000 M⁻¹ s⁻¹.
In the case of `CC(C)[C@@H]1NC(=O)[C@H](CCC(=O)O)NC(=O)[C@H](Cc2c[nH]cn2)NC(=O)[C@H]([C@@H](C)O)NC(=O)[C@H](CCCNC(=N)N)NC(=O)[C@H](CCCNC(=N)N)NC(=O)[C@H](CC(N)=O)NC(=O)[C@H](Cc2ccccc2)NC(=O)[C@H](CCC(N)=O)NC(=O)[C@H](CCCNC(=N)N)NC(=O)[C@@H](Cc2ccc(O)cc2)NC(=O)CSC[C@@H](C(=O)NCC(N)=O)NC(=O)[C@H](CC(=O)O)NC(=O)[C@H](CCCNC(=N)N)NC(=O)[C@H](CC(N)=O)NC(=O)[C@H](Cc2c[nH]c3ccccc23)NC1=O` [aMD4, reference compound] ({CH2CO}-[dY]RQFNRRTHEVWNRDCG-NH2; thioether N-16), in assay [1] (KD, SPR conditions as E1, 1:1 binding model), binding was put at a Kd of 0.00367 µM. Further, in assay [1] (SPR conditions as E1), the kd came to 0.00676 s⁻¹. Besides, in assay [1], the kon turned out to be 1.84e+06 M⁻¹ s⁻¹.
In assay [1] (SPR conditions as E1), `CC(C)C[C@@H]1NC(=O)[C@H](Cc2ccc(O)cc2)NC(=O)CSC[C@@H](C(=O)NCC(N)=O)NC(=O)[C@H](CC(=O)O)NC(=O)[C@H](C(C)C)NC(=O)[C@H](Cc2ccc(O)cc2)NC(=O)[C@H](C(C)C)NC(=O)[C@H](Cc2c[nH]c3ccccc23)NC(=O)[C@H](CC(=O)O)NC(=O)[C@H](CCCCN)NC(=O)[C@H](CC(N)=O)NC(=O)[C@H](CC(=O)O)NC(=O)[C@H](Cc2ccc(O)cc2)NC(=O)[C@H](CCCCN)NC(=O)[C@H](Cc2c[nH]cn2)NC(=O)[C@H](Cc2c[nH]c3ccccc23)NC(=O)[C@H](CC(C)C)NC1=O` [10-5] ({CH2CO}-YLLWHKYDNKDWVYVDCG-NH2; thioether N-17) gave a kd of 0.00694 s⁻¹. For the same molecule, the kon in assay [1] is 356000 M⁻¹ s⁻¹.
Molecule {CH2CO}-YWYYTFDGRWKEYGAACG (thioether N-17 (inferred)) [8–1] yielded a koff in assay [2] of 0.0427 s⁻¹.
{CH2CO}-YSWYLNWQAQWKKFEFCG (thioether N-17 (inferred)) [6–1] returned a koff in assay [2] of 0.0518 s⁻¹.

B1: 14–5 (peptide)
chain: {CH2CO}-YLSWKYYDSSDWVILSCG-NH2
modifications: thioether N-17
SMILES: CC[C@H](C)[C@@H]1NC(=O)[C@H](C(C)C)NC(=O)[C@H](Cc2c[nH]c3ccccc23)NC(=O)[C@H](CC(=O)O)NC(=O)[C@H](CO)NC(=O)[C@H](CO)NC(=O)[C@H](CC(=O)O)NC(=O)[C@H](Cc2ccc(O)cc2)NC(=O)[C@H](Cc2ccc(O)cc2)NC(=O)[C@H](CCCCN)NC(=O)[C@H](Cc2c[nH]c3ccccc23)NC(=O)[C@H](CO)NC(=O)[C@H](CC(C)C)NC(=O)[C@H](Cc2ccc(O)cc2)NC(=O)CSC[C@@H](C(=O)NCC(N)=O)NC(=O)[C@H](CO)NC(=O)[C@H](CC(C)C)NC1=O
In turn, B1 gave a Kd in assay [3] of 0.0647 µM. The molecule also registered a koff in assay [4] of 0.00836 s⁻¹.

B2: 10–1 (peptide)
chain: {CH2CO}-YYSWSGSVSESVKWNSCG-NH2
modifications: thioether N-17
SMILES: CC(C)[C@@H]1NC(=O)[C@H](CO)NC(=O)CNC(=O)[C@H](CO)NC(=O)[C@H](Cc2c[nH]c3ccccc23)NC(=O)[C@H](CO)NC(=O)[C@H](Cc2ccc(O)cc2)NC(=O)[C@H](Cc2ccc(O)cc2)NC(=O)CSC[C@@H](C(=O)NCC(N)=O)NC(=O)[C@H](CO)NC(=O)[C@H](CC(N)=O)NC(=O)[C@H](Cc2c[nH]c3ccccc23)NC(=O)[C@H](CCCCN)NC(=O)[C@H](C(C)C)NC(=O)[C@H](CO)NC(=O)[C@H](CCC(=O)O)NC(=O)[C@H](CO)NC1=O
In the case of B2, the koff in assay [2] was roughly 0.01 s⁻¹; in assay [4] it was 0.00878 s⁻¹.

B3: aML5 (peptide)
peptide: {CH2CO}-YISWNEFNSPNWRFITCG-NH2
modifications: thioether N-17
SMILES: CC[C@H](C)[C@@H]1NC(=O)[C@H](Cc2ccc(O)cc2)NC(=O)CSC[C@@H](C(=O)NCC(N)=O)NC(=O)[C@H]([C@@H](C)O)NC(=O)[C@H]([C@@H](C)CC)NC(=O)[C@H](Cc2ccccc2)NC(=O)[C@H](CCCNC(=N)N)NC(=O)[C@H](Cc2c[nH]c3ccccc23)NC(=O)[C@H](CC(N)=O)NC(=O)[C@@H]2CCCN2C(=O)[C@H](CO)NC(=O)[C@H](CC(N)=O)NC(=O)[C@H](Cc2ccccc2)NC(=O)[C@H](CCC(=O)O)NC(=O)[C@H](CC(N)=O)NC(=O)[C@H](Cc2c[nH]c3ccccc23)NC(=O)[C@H](CO)NC1=O
notes: Benchmark macrocycle from an earlier RaPID selection; measured again here; also called 17-mer aML5
In assay [2], B3 returned a Kd of 0.0112 µM. In assay [4], the koff came out at 0.00606 s⁻¹.
On the same counts, the results for {CH2CO}-[dY]RQFNRRTHEVWNLDCG (thioether N-16 (inferred)) [aMD4] are 0.0037 µM and 0.00676 s⁻¹.
{CH2CO}-YIEWNRFNSKLWNCNCCG (thioether N-17; cysteine pairing not given here) [10–4] registered a koff in assay [4] of 0.00809 s⁻¹.

B4: 14–6 (peptide)
chain: {CH2CO}-YIEWYVYDSKSWVYVRCG-NH2
modifications: thioether N-17
SMILES: CC[C@H](C)[C@@H]1NC(=O)[C@H](Cc2ccc(O)cc2)NC(=O)CSC[C@@H](C(=O)NCC(N)=O)NC(=O)[C@H](CCCNC(=N)N)NC(=O)[C@H](C(C)C)NC(=O)[C@H](Cc2ccc(O)cc2)NC(=O)[C@H](C(C)C)NC(=O)[C@H](Cc2c[nH]c3ccccc23)NC(=O)[C@H](CO)NC(=O)[C@H](CCCCN)NC(=O)[C@H](CO)NC(=O)[C@H](CC(=O)O)NC(=O)[C@H](Cc2ccc(O)cc2)NC(=O)[C@H](C(C)C)NC(=O)[C@H](Cc2ccc(O)cc2)NC(=O)[C@H](Cc2c[nH]c3ccccc23)NC(=O)[C@H](CCC(=O)O)NC1=O
Consider B4, for which, in assay [3], the Kd was 0.0315 µM. This molecule registered a koff in assay [4] of 0.00564 s⁻¹.
{CH2CO}-YWYYTFDGRWEEYDAACG (thioether N-17 (inferred)) [8–3]: in assay [2], the Kd was 0.199 µM and the koff was determined as 0.0464 s⁻¹.

B5: 8–2 (peptide)
chain: {CH2CO}-YYHWNGRDGDKVEWVVCG-NH2
modifications: thioether N-17
SMILES: CC(C)[C@@H]1NC(=O)[C@H](CCCCN)NC(=O)[C@H](CC(=O)O)NC(=O)CNC(=O)[C@H](CC(=O)O)NC(=O)[C@H](CCCNC(=N)N)NC(=O)CNC(=O)[C@H](CC(N)=O)NC(=O)[C@H](Cc2c[nH]c3ccccc23)NC(=O)[C@H](Cc2c[nH]cn2)NC(=O)[C@H](Cc2ccc(O)cc2)NC(=O)[C@H](Cc2ccc(O)cc2)NC(=O)CSC[C@@H](C(=O)NCC(N)=O)NC(=O)[C@H](C(C)C)NC(=O)[C@H](C(C)C)NC(=O)[C@H](Cc2c[nH]c3ccccc23)NC(=O)[C@H](CCC(=O)O)NC1=O
In the case of B5, the koff in assay [2] was 0.0103 s⁻¹.
Molecule {CH2CO}-YWWYYWYRDEYLWRTRCG (thioether N-17 (inferred)) [10–6] registered a koff in assay [4] of 0.00489 s⁻¹.

B6: 12–2 (peptide)
chain: {CH2CO}-YYSWSGNVSESVKWNSCG-NH2
modifications: thioether N-17
SMILES: CC(C)[C@@H]1NC(=O)[C@H](CC(N)=O)NC(=O)CNC(=O)[C@H](CO)NC(=O)[C@H](Cc2c[nH]c3ccccc23)NC(=O)[C@H](CO)NC(=O)[C@H](Cc2ccc(O)cc2)NC(=O)[C@H](Cc2ccc(O)cc2)NC(=O)CSC[C@@H](C(=O)NCC(N)=O)NC(=O)[C@H](CO)NC(=O)[C@H](CC(N)=O)NC(=O)[C@H](Cc2c[nH]c3ccccc23)NC(=O)[C@H](CCCCN)NC(=O)[C@H](C(C)C)NC(=O)[C@H](CO)NC(=O)[C@H](CCC(=O)O)NC(=O)[C@H](CO)NC1=O
B6: in assay [4], the koff worked out at 0.00413 s⁻¹.

Values taken from article PMC11950852, “Diversity Scale of Library Matters: Impact of mRNA Library Diversity Scales on the Discovery of Macrocyclic Peptides Targeting a Protein by the RaPID System” (ACS Central Science, 2025).
